# Test results: US20250361320A1 (Bristol-Myers Squibb, published 2025)
# Substitutions are numbered along the chain they refer to.
# B1: anti-CEACAM5 mAb MBN001 (antibody, V domains shown)
# VH: QVQLVETGGGVVQPGRSLRLSCAASGITFSSHGMHWVRQSPGKGLEWVTFISYDGSYKSYVDSVKGRFAISRDNSKNTLYLQMNSLRPEDTAVYYCATGLTGTGAFDIWGQGTMVTVSS
# VL: not shown
# notes: also called MBN001 parent; bin 1 lead
# B2: MBP003 (hIgG1 progeny of MBN001) (antibody, V domains shown)
# VH: B1 VH with T7S, S40A, A69T, P88A
# VL: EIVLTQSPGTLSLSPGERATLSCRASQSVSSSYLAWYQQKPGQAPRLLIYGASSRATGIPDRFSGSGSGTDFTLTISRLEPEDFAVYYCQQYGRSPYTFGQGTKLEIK
# B3: MBP008 (hIgG1.3f progeny of MBN001) (antibody, V domains shown)
# VH: B1 VH with T7S, S40A, A69T, P88A, G104N, F106L
# VL: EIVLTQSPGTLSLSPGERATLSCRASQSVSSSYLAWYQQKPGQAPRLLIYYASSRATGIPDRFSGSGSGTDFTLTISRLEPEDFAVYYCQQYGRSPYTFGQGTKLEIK
# B4: MBP005 (hIgG1.3f progeny of MBN001) (antibody, V domains shown)
# VH: B1 VH with T7S, T28Y, S40A, A69T, P88A
# VL: not shown
# B5: MBP011 (hIgG1.3f progeny of MBN001) (antibody, V domains shown)
# VH: B1 VH with T7S, S40A, Y57I, A69T, P88A
# VL: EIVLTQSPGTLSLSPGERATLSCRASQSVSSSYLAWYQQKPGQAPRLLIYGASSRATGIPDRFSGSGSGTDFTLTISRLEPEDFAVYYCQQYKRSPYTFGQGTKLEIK
# B6: MBP010 (hIgG1.3f progeny of MBN001) (antibody, V domains shown)
# VH: B1 VH with T7S, S40A, G55S, A69T, P88A
# VL: EIVLTQSPGTLSLSPGERATLSCRASQSVSSSYLAWYQQKPGQAPRLLIYGASSRATGIPDRFSGSGSGTDFTLTISRLEPEDFAVYYCQQNKRSPYTFGQGTKLEIK
# B7: MBP009 (hIgG1.3f progeny of MBN001) (antibody, V domains shown)
# VH: B1 VH with T7S, T28Y, S40A, A69T, P88A
# VL: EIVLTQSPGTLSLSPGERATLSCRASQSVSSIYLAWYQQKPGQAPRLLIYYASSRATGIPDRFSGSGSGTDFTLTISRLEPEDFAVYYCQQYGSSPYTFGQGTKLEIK
# B8: MBP007 (hIgG1.3f progeny of MBN001) (antibody, V domains shown)
# VH: B1 VH with T7S, T28Y, S40A, A69T, P88A, F106N
# VL: B6 VL with R94P
# B9: MBP004 (hIgG1.3f progeny of MBN001) (antibody, V domains shown)
# VH: B1 VH with T7S, S40A, A69T, P88A
# VL: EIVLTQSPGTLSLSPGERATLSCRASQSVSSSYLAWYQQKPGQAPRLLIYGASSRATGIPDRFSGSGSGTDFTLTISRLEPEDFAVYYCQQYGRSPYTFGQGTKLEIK
# B10: MBP002 (hIgG1 progeny of MBN001) (antibody, V domains shown)
# VH: B1 VH with T7S, S40A, A69T, P88A, G104N, F106L
# VL: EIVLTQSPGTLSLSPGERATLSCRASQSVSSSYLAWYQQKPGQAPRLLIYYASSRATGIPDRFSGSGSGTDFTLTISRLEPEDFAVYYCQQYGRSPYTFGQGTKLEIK
# B11: MBP006 (hIgG1.3f progeny of MBN001) (antibody, V domains shown)
# VH: B1 VH with T7S, S40A, K58I, A69T, P88A, F106N
# VL: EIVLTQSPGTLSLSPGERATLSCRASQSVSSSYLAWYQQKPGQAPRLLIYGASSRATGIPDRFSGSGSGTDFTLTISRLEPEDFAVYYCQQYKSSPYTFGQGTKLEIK
# Biological target: T1, cynomolgus CEACAM5 on cells (HCT116-cyCEACAM5) (cynomolgus (Macaca fascicularis))
# T1 construct: also called cynoCEACAM-5
# T1 chain: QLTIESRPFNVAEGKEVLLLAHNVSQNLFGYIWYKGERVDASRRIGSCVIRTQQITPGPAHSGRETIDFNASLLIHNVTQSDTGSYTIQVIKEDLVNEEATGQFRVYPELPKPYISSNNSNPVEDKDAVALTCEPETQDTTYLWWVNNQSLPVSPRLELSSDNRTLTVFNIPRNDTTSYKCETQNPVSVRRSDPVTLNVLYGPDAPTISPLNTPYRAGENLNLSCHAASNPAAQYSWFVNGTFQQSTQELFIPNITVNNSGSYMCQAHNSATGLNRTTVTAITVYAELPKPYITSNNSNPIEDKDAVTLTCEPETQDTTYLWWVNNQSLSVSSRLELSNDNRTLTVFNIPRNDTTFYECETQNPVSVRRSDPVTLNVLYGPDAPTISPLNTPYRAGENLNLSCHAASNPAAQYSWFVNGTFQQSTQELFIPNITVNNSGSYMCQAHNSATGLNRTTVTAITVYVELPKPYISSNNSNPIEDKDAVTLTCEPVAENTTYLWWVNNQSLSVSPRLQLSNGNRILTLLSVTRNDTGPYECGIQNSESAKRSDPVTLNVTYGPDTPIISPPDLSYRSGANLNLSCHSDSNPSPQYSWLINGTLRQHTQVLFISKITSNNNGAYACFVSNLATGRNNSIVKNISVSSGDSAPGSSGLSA
# Experiment: cell binding, HCT-116 cyCEACAM5 cells
row,EC50,Binder
1,82.2 nM,B1

# Biological target: T2, human CEACAM5 on cells (MKN45, BxPC-3, Ls174T, HCT116-huCEACAM5) (human, UniProt P06731 35-685)
# T2 sequence: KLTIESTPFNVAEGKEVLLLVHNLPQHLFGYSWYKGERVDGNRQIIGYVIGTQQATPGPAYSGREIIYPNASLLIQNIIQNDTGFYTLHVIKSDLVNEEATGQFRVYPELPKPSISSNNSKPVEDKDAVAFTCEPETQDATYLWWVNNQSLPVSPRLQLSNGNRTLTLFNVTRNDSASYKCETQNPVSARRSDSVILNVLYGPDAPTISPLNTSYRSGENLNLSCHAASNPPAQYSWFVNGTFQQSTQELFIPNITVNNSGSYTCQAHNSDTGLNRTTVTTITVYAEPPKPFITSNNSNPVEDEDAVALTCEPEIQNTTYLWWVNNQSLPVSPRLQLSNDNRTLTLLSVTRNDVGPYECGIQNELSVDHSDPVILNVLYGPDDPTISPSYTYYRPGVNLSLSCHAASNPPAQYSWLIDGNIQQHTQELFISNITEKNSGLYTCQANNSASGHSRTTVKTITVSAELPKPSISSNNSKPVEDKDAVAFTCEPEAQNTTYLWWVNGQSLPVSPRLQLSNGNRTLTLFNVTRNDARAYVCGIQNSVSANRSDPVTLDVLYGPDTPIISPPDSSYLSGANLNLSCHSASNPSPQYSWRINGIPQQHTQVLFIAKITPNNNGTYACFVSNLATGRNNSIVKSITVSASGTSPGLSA
# Experiment: cell-based or functional assay
Binder,"Ls174T 5-day cytotoxicity (AUC), antibody with cytotoxic payload","MKN45 5-day cytotoxicity (AUC), antibody with cytotoxic payload"
B2,18500,24400
B3,1140,2200
B4,964,2350
B5,939,1770
B6,910,1360
B7,1040,2200
B8,834,2070
B9,865,2380
B10,18900,24100
B11,902,2440
